For data set [1], the target named is T1, MMP-2 substrate G-K(TAMRA)-G-P-L-G-V-R-G-C-CONH2 with 20 kDa PEG, on ligand (biotin) TSACs (Example 3) (not fully specified).
T1 chain: GKGPLGVRGC

For data set [2], the target named is T2, MMP-7 substrate G-K(TAMRA)-G-V-P-L-S-L-T-M-G-C-CONH2 with 20 kDa PEG, on receptor (NeutrAvidin) TSACs (Example 3) (not fully specified).
T2 chain: GKGVPLSLTMGC

Data set [3] addresses T3, MMP-7-MMP-2 tandem substrate TAMRA-G-K-G-V-P-L-S-L-T-M-Ahx-G-P-L-G-V-R-G-C-CONH2 with 20 kDa PEG, on ligand (biotin) TSACs (Example 3) (not fully specified).
T3 chain: GKGVPLSLTMGPLGVRGC

B1: catalytic domain of matrix metalloproteinase-7 (MMP-7; Biomol) (protein)
chain: YSLFPNSPKWTSKVVTYRIVSYTRDLPHITVDRLVSKALNMWGKEIPLHFRKVVWGTADIMIGFARGAHGDSYPFDGPGNTLAHAFAPGTGLGGDAHFDEDERWTDGSSLGINFLYAATHELGHSLGMGHSSDPNAVMYPTYGNGDPQNFKLSQDDIKGIQKLYGKRSNSRKK
As for B1, the “TSAC assembly in DLS” value is listed as “Addition of 0.4 µg MMP-2 actuates TSAC assembly, while 0.4 µg MMP-7 or no enzyme is insufficient” in data set [1] and “addition of 0.4 µg MMP-7 induces assembly, while 0.4 µg MMP-2 cannot” in data set [2]. Moreover, the “hydrodynamic radius increase in DLS” value in data set [3] is given as “Hydrodynamic radii increased more than 5-fold in the presence of either enzyme or both enzymes”.
